Residue numbers refer to the chain shown, from its start.
T1: OVA (Gallus gallus, UniProt P01012)
T1 sequence (P01012 1-386): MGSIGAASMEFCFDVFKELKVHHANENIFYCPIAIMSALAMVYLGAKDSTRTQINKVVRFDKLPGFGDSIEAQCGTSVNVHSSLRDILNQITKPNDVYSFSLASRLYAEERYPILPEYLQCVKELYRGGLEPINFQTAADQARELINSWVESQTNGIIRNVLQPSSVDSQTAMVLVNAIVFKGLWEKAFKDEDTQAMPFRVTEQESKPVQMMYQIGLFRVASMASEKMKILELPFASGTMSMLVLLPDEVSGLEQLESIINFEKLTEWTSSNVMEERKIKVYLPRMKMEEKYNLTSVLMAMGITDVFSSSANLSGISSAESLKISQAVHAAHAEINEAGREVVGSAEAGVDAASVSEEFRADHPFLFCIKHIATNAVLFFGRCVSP

B1: 250: XenoMax derived anti-EGFRvIII antibody, SEQ ID NO: 9/26 (antibody, listed as Homo sapiens, V domains shown)
VH: EGQLLESGGGWVQPGESLRLSCAASGFTFSSYAMSWVRQAPGKGLEWVSAISGSGGSTNYADSVKGRFTISRDNSKNTLYLQVNSLRVEDTAVYYCAGSSGWSEYWGQGTLVTVSS
VL: DIQMTQSPSSLSASVGDSVTITCRTSQGIRKNLGWYQQKPGKAPKRLIYAASSLQSGVPSRFSGSGSGTEFTLTISRLQPEDFATYYCLQHHSYPLTFGGGTRVEIR
B2: 095: XenoMax derived anti-EGFRvIII antibody, SEQ ID NO: 7/23 (antibody, listed as Homo sapiens, V domains shown)
VH: QVQLQESGPFLVKPSQTLSLTCTVSGGSISSGGYYWSWIRQHPGKGLEWIGFIYYRGNTYYNPSLKSRVTISVDTSKNQFSLKLSSVTAADTAVYYCARDGYCSRTGCYGGWFDPWGQGTLVTVSP
VL: DIVMTQTPLSSPVTLGQPASISCRSSQSLIHTDGNIYLSWLQQRPGQPPRLLIYKISNRFSGVPDRFSGSGAGTDFTLKISRVEAEDVGVYYCMQGTQFPITFGQGTRLEIK
B3: 333: XenoMax derived anti-EGFRvIII antibody, SEQ ID NO: 17/32 (antibody, listed as Homo sapiens, V domains shown)
VH: QVQLVESGGGVVQPGRSLRLSCVASGFTLSSYGMHWVRQALGKGLEWVAVTSYDGSKKDYADSVKGRFTISRDNSKNTLYLQMNSLRAEDTAVYYCVSEGYCDSTSCYKYYYYGMDVWGQGTTVTVSS
VL: DIVMTQSPLSLPVTPGEPASISCRSSQSLLYRNGNNYLDWYLQRPGQSPQLLIYLGSNRASGVPDRFSGSGSGTDFTLKISRVEAEDVGVYYCMQALQTPRTFGQGTKVEIK
B4: 129A7: XenoMax derived anti-EGFRvIII antibody, heavy chain of 124 (SEQ ID NO: 13), light chain of 123 (SEQ ID NO: 29) (antibody, listed as Homo sapiens, V domains shown)
VH: B3 VH with V23A, L41P, T51M, K58E, K76E, D103S, T105R
VL: B3 VL with R44K, K79N, V90H
B5: 170: XenoMax derived anti-EGFRvIII antibody, SEQ ID NO: 4/20 (antibody, listed as Homo sapiens, V domains shown)
VH: QVQLQQSGPGLVKPSQTLSLTCAISGDSVSSNNAAWNWIRQSPARGLEWLGRTYYRSKWYNDYVVSVKSRITINPDTSKNQFSLQLNSVTPEDTAVYYCVRATAFDYWGQGTLVTVSS
VL: AIVLTQTPLSSPVTLGQPASISCRSSQSLVHRDGNTYLSWLQQRPGQPPRLLIYKISNRFSGVPDRFSGSGAGTDFTLKISRVEPDDVGVYYCMHTTQLPWTFGQGTKVEIK
B6: 150: XenoMax derived anti-EGFRvIII antibody, SEQ ID NO: 5/21 (antibody, listed as Homo sapiens, V domains shown)
VH: QVQLQQSGPGLVKPSQTLSLTCAISGDSVSSYSSAWNWIRQSPSRGLEWLGRAYHRSRWYYEYAVSVKSRINITPDTSKNQFSLQLNSVTPEDTAVYYCARGSRFDYWGQGTLVTVSS
VL: B5 VL with A1D, L4M, P85A, D86E, V90I, Y92F, L99F, K108R
B7: 211: XenoMax derived anti-EGFRvIII antibody, SEQ ID NO: 12/28 (antibody, listed as Homo sapiens, V domains shown)
VH: B3 VH with L41P, V64A, D103S, T105S
VL: B3 VL

Columns and labels:
EGFRvIII-peptide-OVA = biological target: T2, EGFRvIII-peptide-OVA (Homo sapiens, UniProt P00533, DELINS30-297G); assay: B-cell culture supernatant ELISA on EGFRvIII-peptide-OVA; assay type: binding; conditions: for binding with the pep3: XenoMax approach, in words; for 1′ VIII-pep-OVA OD / 2′ VIII-pep-OVA OD: Table 3.8
T2 construct: 207 μg of EGFRvIII PEP3 was reduced; host or cells: synthetic peptide, chemical conjugation
Experimental: B-cells from the above-discussed animals were harvested and cultured. Those secreting EGFRvIII-peptide specific antibodies were isolated as described in Babcook et al., Proc. Natl. Acad. Sci. USA, 93:7843-7848 (1996). ELISA was used to identify primary EGFRvIII-peptide-OVA-specific wells. About 5 million B-cells were cultured from XenoMouse animals in 24596 well plates at 500 or 150 or 50 cells/well, and were screened on EGFRvIII-peptide-OVA to identify the antigen-specific wells.
(§1) 244 of EGFRvIII-peptide-OVA-Elisa positive wells of OD >0.5 were screened again on EGFRvIII-peptide-OVA and on OVA to confirm that they were EGFRvIII-peptide specific.

[1] = biological target: T3, NR6 Wt cells (NR6 cells expressing EGF receptor) (Homo sapiens, UniProt P00533); assay: Native cell binding assay by FMAT, NR6 Wt cells; conditions: for cross-reactivity with wild type EGFR: XenoMax approach, in words; for FMAT native binding to NR6 Wt cells: total fluorescent intensity
T3 construct: expressed in transfected cells; host or cells: NR6 cells (NR6 Wt)
Text: The same type of native binding assay was done on NR6 Wt cells (NR6 cells expressing EGF receptor) (See Batra et al. Epidermal growth factor ligand-independent, unregulated, cell-transforming potential of a naturally occurring human mutant EGFRvIII gene. Cell Growth Differ. 6(10):1251-9 (1995)) to eliminate the binding is due to binding to Wt receptor (Table 3.8). ABX-EGF was used as a positive control and PK 16.3.1 at the same concentration was used as a negative control antibody. 3 out the 134 NR6 M binders were binding strongly to NR6 Wt cells. 190 of the 244 wells bound EGFRvIII peptide in Elisa were also bound to the native form on cells.
In this example, binding of anti-EGFRvIII antibodies to NR6 M cells was measured. Specifically, unquantitated supernatants of XenoMax derived IgG1 recombinant antibodies were assayed for their ability to bind to NR6 M and NR6 WT cells. Cells were seeded at 10000/well and incubated overnight at 37 C in FMAT 96 well plates. Media was removed and 40 μl mini lipo supernatant (titrated down) was added, the cells were incubated on ice for 1 hr. […] The PK 16.3.1 antibody was used as a negative control. The cells were washed with Cold PBS, secondary antibody was added (SS Alexa antihuman IgG Fc) at 1 μg/ml, 40 μl/well and incubated on ice for 1 hr. The cells were then washed with Cold PBS and fixed and read by FMAT. All antibodies were tested for specificity for binding by counter screening against NR6 WT cells.

[2] = biological target: T4, EGFRvIII receptor in NR6 M cells (Homo sapiens, UniProt P00533, DELINS30-297G); assay: Internalization of EGFRvIII receptor by recombinant mAbs (FACS); assay type: cell-based; conditions: 0.25 μg/ml antibody, 1 hr
T4 construct: NR6 M cells stably expressing full length EGFRvIII; expressed in transfected cells; host or cells: NR6 cells (NR6 M)
Experimental: XenoMax derived IgG1 recombinant antibodies were expressed, purified and quantitated as described previously. Antibodies were further assayed for their ability to internalize the EGFRvIII receptor in NR6 M cells. […] The cells were washed with cold 10% FCS in PBS and secondary antibody (SS Alexa antihuman IgG Fab) at 3 μg/ml Fab was added and incubated for 7 mins on ice. The cells were washed with cold 10% FCS in PBS once and then resuspended in cold media. Next, two sets of the triplicate were incubated at 37° C. and the remaining set was incubated at 4° C. for 1 hr. After that the cells incubated at 4° C. and one set of the cells incubated at 37° C. were treated with glutathione (as previously mentioned) for 1 hr on ice. Then the cells were washed and resuspended in 100 μl of cold 1% FCS in PBS and analyzed by FACS. The % internalization was calculated from the geometric mean obtained from the FACS analysis [(mean at 37° C. with glutathione−mean at 4° C. with glutathione)/(mean at 37° C. without glutathione−mean at 4 C with glutathione)].

OVA = biological target: T1, OVA; assay: B-cell culture supernatant ELISA on OVA (specificity control); assay type: binding; conditions: Table 3.8
Text: as §1

[3] = biological target: T5, native form of EGFRvIII stably expressed on NR6 cells (NR6 M cells) (Homo sapiens, UniProt P00533, DELINS30-297G); assay: Native cell binding assay by FMAT, NR6 M cells; conditions: total fluorescent intensity
T5 construct: NR6 M cells stably expressing full length EGFRvIII; expressed in transfected cells; host or cells: NR6 cells (NR6 M)
Experimental: EGFRvIII peptide-OVA-Elisa positive well supernatants were analyzed for their ability to bind to the native form of EGFRvIII stably expressed on NR6 cells (NR6 M cells) (See, Batra et al. Epidermal growth factor ligand-independent, unregulated, cell-transforming potential of a naturally occurring human mutant EGFRvIII gene. Cell Growth Differ. 6(10):1251-9 (1995)). NR 6 M cells were seeded at 8000 cells per well and incubated over night in 96 well FMAT plates. Media was then removed leaving 15 μl in the well. 15 μl B-cell culture supernatants were added and 15 μl anti-human IgG Fc Cy5 at 1 μg/ml final concentration added to wells. It is then left incubated at 4° C. for 2 hours. The cells were washed with 150 μl PBS, and fixed before reading on FMAT. The results were expressed as total fluorescent intensity (Table 3.8).

[4] = biological target: T6, EGFRvIII receptor on NR6 M cells (Homo sapiens, UniProt P00533, DELINS30-297G); assay: Internalization assay (FMAT, glutathione) of B cell culture supernatants; assay type: cell-based; conditions: for % internalized, (glut+/glut−) × 100 / With glutathione FL1xcount: 37° C. for 30 mins; for With glutathione FL1xcount: 50 mM glutathione; for No glutathione FL1xcount: kept on ice
T6 construct: NR6 M cells stably expressing full length EGFRvIII; expressed in transfected cells; host or cells: NR6 cells (NR6 M)
Experimental: The top 60 native binding B cell culture supernatants were further assayed for their ability to internalize the receptor. NR6 M cells were seeded at 8000 cells/well into 96 well FMAT plates and incubated overnight. Media was removed and 10-15 μl B-Cell culture supernatant in a total volume of 30 μl media, in duplicate was added. Next, 15 μl of secondary antibody (SS Alexa 647 anti-human IgG Fab at 1.5 μg/ml final concentration) was added and the mixture was incubated on ice for 1 hr. An irrelevant B-Cell Culture supernatant was used to see the effect of the culture media. Human anti-EGFRvIII mAb 13.2.1 was used as a positive control starting at 1 μg/ml (final concentration) and negative control was PK 16.3.1 (human anti-KLH IgG2 antibody) at the same concentration. After incubation, the cells were washed with cold PBS, 50 μl media was added to all of the wells, one of the duplicates were incubated at 37° C. for 30 mins while the other duplicate remained on ice. After the incubations media was removed, 100 ul of cold 50 mM glutathione was added to the set incubated at 37° C. and 100 μl of cold media added to the other set, both sets were then left on ice for 1 hr. The cells were then washed with 100 μl cold PBS and then fixed with 1% paraformaldehyde and read in FMAT. The results were expressed as % internalized, calculated as total fluorescence in the presence of glutathione/total fluorescence in the absence of glutathione×100.

Molecule	binding with the pep3 (EGFRvIII-peptide-OVA)	cross-reactivity with wild type EGFR [1]	FACS Geometric mean With glutathione 4° C. [2]	FACS Geometric mean With glutathione 37° C. [2]	1′ VIII-pep-OVA OD (EGFRvIII-peptide-OVA)	2′ VIII-pep-OVA OD (EGFRvIII-peptide-OVA)	OVA OD (OVA)	FMAT native binding to NR6 M cells [3]	FMAT native binding to NR6 Wt cells [1]	% internalized, (glut+/glut−) × 100 [4]	With glutathione FL1xcount [4]	No glutathione FL1xcount [4]
B1	highly specific	limited cross-reactivity with wild type EGFR	4.84	8.07								
B2	highly specific	limited cross-reactivity with wild type EGFR	5.13	17.75								
B3					0.8555	1.2070	0.1649	109379	0	37.1%	13293	35820
B4					2.1501	2.8208	0.1515	84024	0	31.5%	8708	27648
B5			4.67	7.75						52.8%	1236	2342
B6			4.66	7.78								
B7			4.78	8.23								

Source: patent publication US20140314667A1, “METHODS OF TREATING EPIDERMAL GROWTH FACTOR DELETION MUTANT VIII RELATED DISORDERS” (AMGEN INC., priority 2011, published 2014)
